Assay results reported in patent US20110207796.

Target: human alpha-synuclein (wild-type, recombinant)

B1: G protein-coupled receptor kinase 6 (protein)
chain: MELENIVANTVLLKAREGGGGNRKGKSKKWRQMLQFPHISQCEELRLSLERDYHSLCERQPIGRLLFREFCATRPELSRCVAFLDGVAEYEVTPDDKRKACGRQLTQNFLSHTGPDLIPEVPRQLVTNCTQRLEQGPCKDLFQELTRLTHEYLSVAPFADYLDSIYFNRFLQWKWLERQPVTKNTFRQYRVLGKGGFGEVCACQVRATGKMYACKKLEKKRIKKRKGEAMALNEKQILEKVNSRFVVSLAYAYETKDALCLVLTLMNGGDLKFHIYHMGQAGFPEARAVFYAAEICCGLEDLHRERIVYRDLKPENILLDDHGHIRISDLGLAVHVPEGQTIKGRVGTVGYMAPEVVKNERYTFSPDWWALGCLLYEMIAGQSPFQQRKKKIKREEVERLVKEVPEEYSERFSPQARSLCSQLLCKDPAERLGCRGGSAREVKEHPLFKKLNFKRLGAGMLEPPFKPDPQAIYCKDVLDIEQFSTVKGVELEPTDQDFYQKFATGSVPIPWQNEMVETECFQELNVFGLDGSVPPDLDWKGQPPAPPKKGLLQRLFSRQDCCGNCSDSEEELPTRL
S129 phosphorylation in vitro, kinases normalized by activity units: The most prominent result came from GRK6
S129 phosphorylation, immunoblot (mAb 11A5), kinase:rAS 1:200 molar: Prominent signals came from GRK6, CKI, CKII and PLK2
S129 phosphorylation, immunoblot (mAb 11A5), rank of signal: CKI>GRK6>PLK2>GRK4>GRK5>GRK2
in vitro kinase reaction, phosphorylation of alpha-synuclein at serine 129: capable of phosphorylating alpha-synuclein specifically at serine 129 and did not phosphorylate serine 87 in vitro
phospho ser-129 in vitro, kinases normalized for molarity: roughly equivalent levels of phospho ser-129 between CKI, GRK6 and PLK2

B2: GRK7 (protein)
chain: MVDMGALDNLIANTAYLQARKPSDCDSKELQRRRRSLALPGLQGCAELRQKLSLNFHSLCEQQPIGRRLFRDFLATVPTFRKAATFLEDVQNWELAEEGPTKDSALQGLVATCASAPAPGNPQPFLSQAVATKCQAATTEEERVAAVTLAKAEAMAFLQEQPFKDFVTSAFYDKFLQWKLFEMQPVSDKYFTEFRVLGKGGFGEVCAVQVKNTGKMYACKKLDKKRLKKKGGEKMALLEKEILEKVSSPFIVSLAYAFESKTHLCLVMSLMNGGDLKFHIYNVGTRGLDMSRVIFYSAQIACGMLHLHELGIVYRDMKPENVLLDDLGNCRLSDLGLAVEMKGGKPITQRAGTNGYMAPEILMEKVSYSYPVDWFAMGCSIYEMVAGRTPFKDYKEKVSKEDLKQRTLQDEVKFQHDNFTEEAKDICRLFLAKKPEQRLGSREKSDDPRKHHFFKTINFPRLEAGLIEPPFVPDPSVVYAKDIAEIDDFSEVRGVEFDDKDKQFFKNFATGAVPIAWQEEIIETGLFEELNDPNRPTGCEEGNSSKSGVCLLL
S129 phosphorylation, immunoblot (mAb 11A5): Prominent signals came from all GRKs except for GRK7
in vitro kinase reaction, phosphorylation of alpha-synuclein at serine 129: capable of phosphorylating alpha-synuclein specifically at serine 129 and did not phosphorylate serine 87 in vitro
phosphorylation of alpha-synuclein in vitro: GRK 7 was not able to phosphorylate at appreciable levels

B3: adrenergic, beta, receptor kinase 1 (GRK2; BARK1) (protein)
chain: MADLEAVLADVSYLMAMEKSKATPAARASKKILLPEPSIRSVMQKYLEDRGEVTFEKIFSQKLGYLLFRDFCLNHLEEARPLVEFYEEIKKYEKLETEEERVARSREIFDSYIMKELLACSHPFSKSATEHVQGHLGKKQVPPDLFQPYIEEICQNLRGDVFQKFIESDKFTRFCQWKNVELNIHLTMNDFSVHRIIGRGGFGEVYGCRKADTGKMYAMKCLDKKRIKMKQGETLALNERIMLSLVSTGDCPFIVCMSYAFHTPDKLSFILDLMNGGDLHYHLSQHGVFSEADMRFYAAEIILGLEHMHNRFVVYRDLKPANILLDEHGHVRISDLGLACDFSKKKPHASVGTHGYMAPEVLQKGVAYDSSADWFSLGCMLFKLLRGHSPFRQHKTKDKHEIDRMTLTMAVELPDSFSPELRSLLEGLLQRDVNRRLGCLGRGAQEVKESPFFRSLDWQMVFLQKYPPPLIPPRGEVNAADAFDIGSFDEEDTKGIKLLDSDQELYRNFPLTISERWQQEVAETVFDTINAETDRLEARKKAKNKQLGHEEDYALGKDCIMHGYMSKMGNPFLTQWQRRYFYLFPNRLEWRGEGEAPQSLLTMEEIQSVEETQIKERKCLLLKIRGGKQFILQCDSDPELVQWKKELRDAYREAQQLVQRVPKMKNKPRSPVVELSKVPLVQRGSANGL
S129 phosphorylation, immunoblot (mAb 11A5), rank of signal: CKI>GRK6>PLK2>GRK4>GRK5>GRK2
in vitro kinase reaction, phosphorylation of alpha-synuclein at serine 129: capable of phosphorylating alpha-synuclein specifically at serine 129 and did not phosphorylate serine 87 in vitro

B4: CDC7 cell division cycle 7-like 1 (protein)
chain: MEASLGIQMDEPMAFSPQRDRFQAEGSLKKNEQNFKLAGVKKDIEKLYEAVPQLSNVFKIEDKIGEGTFSSVYLATAQLQVGPEEKIALKHLIPTSHPIRIAAELQCLTVAGGQDNVMGVKYCFRKNDHVVIAMPYLEHESFLDILNSLSFQEVREYMLNLFKALKRIHQFGIVHRDVKPSNFLYNRRLKKYALVDFGLAQGTHDTKIELLKFVQSEAQQERCSQNKSHIITGNKIPLSGPVPKELDQQSTTKASVKRPYTNAQIQIKQGKDGKEGSVGLSVQRSVFGERNFNIHSSISHESPAVKLMKQSKTVDVLSRKLATKKKAISTKVMNSAVMRKTASSCPASLTCDCYATDKVCSICLSRRQQVAPRAGTPGFRAPEVLTKCPNQTTAIDMWSAGVIFLSLLSGRYPFYKASDDLTALAQIMTIRGSRETIQAAKTFGKSILCSKEVPAQDLRKLCERLRGMDSSTPKLTSDIQGHASHQPAISEKTDHKASCLVQTPPGQYSGNSFKKGDSNSCEHCFDEYNTNLEGWNEVPDEAYDLLDKLLDLNPASRITAEEALLHPFFKDMSL
in vitro kinase reaction, phosphorylation of alpha-synuclein: shown to be incapable of directly phosphorylating alpha-synuclein

B5: PLK3 (protein)
chain: MEPAAGFLSPRPFQRAAAAPAPPAGPGPPPSALRGPELEMLAGLPTSDPGRLITDPRSGRTYLKGRLLGKGGFARCYEATDTETGSAYAVKVIPQSRVAKPHQREKILNEIELHRDLQHRHIVRFSHHFEDADNIYIFLELCSRKSLAHIWKARHTLLEPEVRYYLRQILSGLKYLHQRGILHRDLKLGNFFITENMELKVGDFGLAARLEPPEQRKKTICGTPNYVAPEVLLRQGHGPEADVWSLGCVMYTLLCGSPPFETADLKETYRCIKQVHYTLPASLSLPARQLLAAILRASPRDRPSIDQILRHDFFTKGYTPDRLPISSCVTVPDLTPPNPARSLFAKVTKSLFGRKKKSKNHAQERDEVSGLVSGLMRTSVGHQDARPEAPAASGPAPVSLVETAPEDSSPRGTLASSGDGFEEGLTVATVVESALCALRNCIAFMPPAEQNPAPLAQPEPLVWVSKWVDYSNKFGFGYQLSSRRVAVLFNDGTHMALSANRKTVHYNPTSTKHFSFSVGAVPRALQPQLGILRYFASYMEQHLMKGGDLPSVEEVEVPAPPLLLQWVKTDQALLMLFSDGTVQVNFYGDHTKLILSGWEPLLVTFVARNRSACTYLASHLRQLGCSPDLRQRLRYALRLLRDRSPA
Fold Change in Percent Synuclein Phosphorylation (ELISA, HEK-293 overexpression): 39.6 fold
Proportion of total synuclein that is phoshorylated at ser-129 (ELISA, HEK-293 overexpression): 79.2%
in vitro biochemical assay, phosphorylation of synuclein: PLK2 and PLK3 having extremely robust phosphorylation of synuclein

B6: PLK4 (protein)
chain: MATCIGEKIEDFKVGNLLGKGSFAGVYRAESIHTGLEVAIKMIDKKAMYKAGMVQRVQNEVKIHCQLKHPSILELYNYFEDSNYVYLVLEMCHNGEMNRYLKNRVKPFSENEARHFMHQIITGMLYLHSHGILHRDLTLSNLLLTRNMNIKIADFGLATQLKMPHEKHYTLCGTPNYISPEIATRSAHGLESDVWSLGCMFYTLLIGRPPFDTDTVKNTLNKVVLADYEMPSFLSIEAKDLIHQLLRRNPADRLSLSSVLDHPFMSRNSSTKSKDLGTVEDSIDSGHATISTAITASSSTSISGSLFDKRRLLIGQPLPNKMTVFPKNKSSTDFSSSGDGNSFYTQWGNQETSNSGRGRVIQDAEERPHSRYLRRAYSSDRSGTSNSQSQAKTYTMERCHSAEMLSVSKRSGGGENEERYSPTDNNANIFNFFKEKTSSSSGSFERPDNNQALSNHLCPGKTPFPFADPTPQTETVQQWFGNLQINAHLRKTTEYDSISPNRDFQGHPDLQKDTSKNAWTDTKVKKNSDASDNAHSVKQQNTMKYMTALHSKPEIIQQECVFGSDPLSEQSKTRGMEPPWGYQNRTLRSITSPLVAHRLKPIRQKTKKAVVSILDSEEVCVELVKEYASQEYVKEVLQISSDGNTITIYYPNGGRGFPLADRPPSPTDNISRYSFDNLPEKYWRKYQYASRFVQLVRSKSPKITYFTRYAKCILMENSPGADFEVWFYDGVKIHKTEDFIQVIEKTGKSYTLKSESEVNSLKEEIKMYMDHANEGHRICLALESIISEEERKTRSAPFFPIIIGRKPGSTSSPKALSPPPSVDSNYPTRERASFNRMVMHSAASPTQAPILNPSMVTNEGLGLTTTASGTDISSNSLKDCLPKSAQLLKSVFVKNVGWATQLTSGAVWVQFNDGSQLVVQAGVSSISYTSPNGQTTRYGENEKLPDYIKQKLQCLSSILLMFSNPTPNFH
Fold Change in Percent Synuclein Phosphorylation (ELISA, HEK-293 overexpression): 1 fold
Proportion of total synuclein that is phoshorylated at ser-129 (ELISA, HEK-293 overexpression): 1.9%
in vitro biochemical assay, phosphorylation of synuclein: PLK4 exhibiting no ability to phosphorylate synuclein

B7: met proto-oncogene (hepatocyte growth factor receptor) (protein)
chain: KKRKQIKDLGSELVRYDARVHTPHLDRLVSARSVSPTTEMVSNESVDYRATFPEDQFPNSSQNGSCRQVQYPLTDMSPILTSGDSDISSPLLQNTVHIDLSALNPELVQAVQHVVIGPSSLIVHFNEVIGRGHFGCVYHGTLLDNDGKKIHCAVKSLNRITDIGEVSQFLTEGIIMKDFSHPNVLSLLGICLRSEGSPLVVLPYMKHGDLRNFIRNETHNPTVKDLIGFGLQVAKGMKYLASKKFVHRDLAARNCMLDEKFTVKVADFGLARDMYDKEYYSVHNKTGAKLPVKWMALESLQTQKFTTKSDVWSFGVLLWELMTRGAPPYPDVNTFDITVYLLQGRRLLQPEYCPDPLYEVMLKCWHPKAEMRPSFSELVSRISAIFSTFIGEHYVHVNATYVNVKCVAPYPSLLSSEDNADDEVDTRPASFWETS
in vitro kinase reaction, phosphorylation of alpha-synuclein: shown to be incapable of directly phosphorylating alpha-synuclein

B8: GRK4 (protein)
chain: MELENIVANSLLLKARQGGYGKKSGRSKKWKEILTLPPVSQCSELRHSIEKDYSSLCDKQPIGRRLFRQFCDTKPTLKRHIEFLDAVAEYEVADDEDRSDCGLSILDRFFNDKLAAPLPEIPPDVVTECRLGLKEENPSKKAFEECTRVAHNYLRGEPFEEYQESSYFSQFLQWKWLERQPVTKNTFRHYRVLGKGGFGEVCACQVRATGKMYACKKLQKKRIKKRKGEAMALNEKRILEKVQSRFVVSLAYAYETKDALCLVLTIMNGGDLKFHIYNLGNPGFDEQRAVFYAAELCCGLEDLQRERIVYRDLKPENILLDDRGHIRISDLGLATEIPEGQRVRGRVGTVGYMAPEVVNNEKYTFSPDWWGLGCLIYEMIQGHSPFKKYKEKVKWEEVDQRIKNDTEEYSEKFSEDAKSICRMLLTKNPSKRLGCRGEGAAGVKQHPVFKDINFRRLEANMLEPPFCPDPHAVYCKDVLDIEQFSVVKGIYLDTADEDFYARFATGCVSIPWQNEMIESGCFKDINKSESEEALPLDLDKNIHTPVSRPNRGFFYRLFRRGGCLTMVPSEKEVEPKQC
S129 phosphorylation, immunoblot (mAb 11A5), rank of signal: CKI>GRK6>PLK2>GRK4>GRK5>GRK2
